Assay results as given in publication PMC12301328, “Identification of a preferred DNA binding sequence and novel regulon member for CadR in Pseudomonas aeruginosa PAO1”.

What was measured:
[1] = molecular target: CadR from Pseudomonas aeruginosa PAO1 (PaCadR) (Pseudomonas aeruginosa PAO1); experiment: native gel or EMSA; adaptation of a Ferguson plot of the DNA-bound PaCadR species on native PAGE (Supplementary Figure S6); PaCadR bound to its consensus DNA
[2] = molecular target: CadR from Pseudomonas aeruginosa PAO1 (PaCadR) (Pseudomonas aeruginosa PAO1); experiment: not stated; purified PaCadR in solution (Supplementary Figure S7); method not given
PaCadR [3] = molecular target: T1, PaCadR (Pseudomonas aeruginosa PAO1, UniProt Q9HXV1 1-156); experiment: BLI; no added metal; EMSA: 1X CutSmart buffer, 1 mM DTT, 3 mM EDTA, 5 nM each DNA, 37 C, 20 min; BLI: 20 mM Tris-Cl pH 7.5, 100 mM NaCl, 0.01% Tween-20, 1 mM DTT, 37 C; conditions: protein: recombinant; chain copies: 2; label: 5' biotin on ST2R strand; blunt
T1 sequence: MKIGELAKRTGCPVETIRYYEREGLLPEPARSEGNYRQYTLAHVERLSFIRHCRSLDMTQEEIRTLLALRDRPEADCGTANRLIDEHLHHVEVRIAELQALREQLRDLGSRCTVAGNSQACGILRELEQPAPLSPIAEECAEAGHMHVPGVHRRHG

PaCadR [4] = molecular target: T1, PaCadR; experiment: EMSA; 50 nM PaCadR; not significantly different from WT; EMSA: 1X CutSmart buffer, 1 mM DTT, 3 mM EDTA, 5 nM each DNA, 37 C, 20 min; BLI: 20 mM Tris-Cl pH 7.5, 100 mM NaCl, 0.01% Tween-20, 1 mM DTT, 37 C; conditions: protein: recombinant; chain copies: 2; label: 5' IRDye-700 on ST2R strand; blunt
PaCadR [5] = molecular target: T1, PaCadR; experiment: EMSA; 20-80 nM PaCadR; EMSA: 1X CutSmart buffer, 1 mM DTT, 3 mM EDTA, 5 nM each DNA, 37 C, 20 min; BLI: 20 mM Tris-Cl pH 7.5, 100 mM NaCl, 0.01% Tween-20, 1 mM DTT, 37 C; conditions: protein: recombinant; chain copies: 2; label: 5' IRDye-800 on ConL strand; blunt

Molecule: CadR from Pseudomonas aeruginosa PAO1 (PaCadR) (from UniProt A0A0H2ZEP1 1-156) (natural protein)
- stoichiometry N [1]: 2
- stoichiometry N [2]: 2

B1: Control (BLI) (dsDNA)
DNA 1: CTAGGAATTCGTGCAGAGGTGACGTCATAGAATTCGCATCCCTCCAGAAGCTTGGAC
DNA 2: GTCCAAGCTTCTGGAGGGATGCGAATTCTATGACGTCACCTCTGCACGAATTCCTAG
- binding result (PaCadR [3]): no binding

B2: ST2_CadR_mt12 (dsDNA)
DNA 1: CTAGGAATTCGTGCAGAGGTGAAACCCTGTAGTGACTACAGGGTTCATCCCTCCAGAAGCTTGGAC
DNA 2: GTCCAAGCTTCTGGAGGGATGAACCCTGTAGTCACTACAGGGTTTCACCTCTGCACGAATTCCTAG
- binding result (PaCadR [4]): binds

B3: Control (EMSA) (dsDNA)
DNA 1: CCTCTCTATGGGCAGTCGGTGATCTAGGAATTCGTGCAGAGGTGACGTCATAGAATTCGCATCCCTCCAGAAGCTTGGAC
DNA 2: GTCCAAGCTTCTGGAGGGATGCGAATTCTATGACGTCACCTCTGCACGAATTCCTAGATCACCGACTGCCCATAGAGAGG
- binding result (PaCadR [5]): no binding
